{
  "source": "paper PMC4641775",
  "about": "(2016)",
  "molecules": {"B1": {"name": "PKR (protein)", "chain": "AGDLSAGFFMEELNTYRQKQGVVLKYQELPNSGPPHDRRFTFQVIIDGREFPEGEGRSKKEAKNAAAKLAVEILNKEKKAVSPLLLTTTNSSEGLSMGNYIGLINRIAQKKRLTVNYEQCASGVHGPEGFHYKCKMGQKEYSIGTGSTKQEAKQLAAKLAYLQILSEETSVKSDYLSSGSFATTCESQSNSLVTSTLASESSSEGDFSADTSEINSNSDSLNSSSLLMNGLRNNQRKAKRSLAPRFDLPDMKETKYTVDKRFGMDFKEIELIGSGGFGQVFKAKHRIDGKTYVIKRVKYNNEKAEREVKALAKLDHVNIVHYNGCWDGFDYDPETSDDSLESSDYDPENSKNSSRSKTKCLFIQMEFCDKGTLEQWIEKRRGEKLDKVLALELFEQITKGVDYIHSKKLIHRDLKPSNIFLVDTKQVKIGDFGLVTSLKNDGKRTRSKGTLRYMSPEQISSQDYGKEVDLYALGLILAELLHVCDTAFETSKFFTDLRDGIISDIFDKKEKTLLQKLLSKKPEDRPNTSEILRTLTVWKKSPEKNERHTC", "modifications": "K371pAzF labeled with Alexa Fluor 488-DIBO"}, "B2": {"name": "PKR (protein)", "chain": "AGDLSAGFFMEELNTYRQKQGVVLKYQELPNSGPPHDRRFTFQVIIDGREFPEGEGRSKKEAKNAAAKLAVEILNKEKKAVSPLLLTTTNSSEGLSMGNYIGLINRIAQKKRLTVNYEQCASGVHGPEGFHYKCKMGQKEYSIGTGSTKQEAKQLAAKLAYLQILSEETSVKSDYLSSGSFATTCESQSNSLVTSTLASESSSEGDFSADTSEINSNSDSLNSSSLLMNGLRNNQRKAKRSLAPRFDLPDMKETKYTVDKRFGMDFKEIELIGSGGFGQVFKAKHRIDGKTYVIKRVKYNNEKAEREVKALAKLDHVNIVHYNGCWDGFDYDPETSDDSLESSDYDPENSKNSSRSKTKCLFIQMEFCDKGTLEQWIEKRRGEKLDKVLALELFEQITKGVDYIHSKKLIHRDLKPSNIFLVDTKQVKIGDFGLVTSLKNDGKRTRSKGTLRYMSPEQISSQDYGKEVDLYALGLILAELLHVCDTAFETSKFFTDLRDGIISDIFDKKEKTLLQKLLSKKPEDRPNTSEILRTLTVWKKSPEKNERHTC", "modifications": "K261pAzF labeled with Alexa Fluor 488-DIBO"}},
  "key": {"PKR (Homo sapiens) [1]": {"biological_target": "PKR (Homo sapiens) (UniProt P19525)", "settings": "cited from earlier work"}, "PKR (Homo sapiens) [2]": {"biological_target": "PKR (Homo sapiens) (UniProt P19525)", "assay": "sedimentation equilibrium", "settings": "cited from earlier work"}, "[3]": {"biological_target": "PKR kinase kinase domain (Homo sapiens) (UniProt P19525)", "settings": "cited from earlier work"}, "PKR": {"biological_target": "T1, PKR (Homo sapiens, UniProt P19525)", "T1 chain": "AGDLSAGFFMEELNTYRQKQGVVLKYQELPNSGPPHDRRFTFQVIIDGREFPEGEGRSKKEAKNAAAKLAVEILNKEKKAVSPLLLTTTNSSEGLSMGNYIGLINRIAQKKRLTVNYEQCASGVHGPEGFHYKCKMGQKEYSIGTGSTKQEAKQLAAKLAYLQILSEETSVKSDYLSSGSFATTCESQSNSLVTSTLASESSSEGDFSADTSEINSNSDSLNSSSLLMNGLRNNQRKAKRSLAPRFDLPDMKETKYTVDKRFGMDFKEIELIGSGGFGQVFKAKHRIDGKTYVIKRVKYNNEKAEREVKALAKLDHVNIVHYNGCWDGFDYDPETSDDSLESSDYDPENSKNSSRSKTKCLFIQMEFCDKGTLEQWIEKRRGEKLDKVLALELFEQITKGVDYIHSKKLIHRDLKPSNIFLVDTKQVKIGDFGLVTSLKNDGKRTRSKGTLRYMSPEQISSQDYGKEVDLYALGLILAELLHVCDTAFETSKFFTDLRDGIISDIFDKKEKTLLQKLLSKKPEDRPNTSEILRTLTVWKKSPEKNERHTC", "assay": "sedimentation equilibrium"}},
  "note": "Like-named read-outs stand apart in the source and are kept apart here.",
  "data": [
    {"molecule": "PKR (from UniProt P19525)", "values": [
      {"measurement": "Kd", "setting": "PKR (Homo sapiens) [1]", "value": 500, "unit": "µM"},
      {"measurement": "Kd", "setting": "PKR (Homo sapiens) [2]", "value": 450, "unit": "µM"}
    ]},
    {"molecule": "PKR second dsRBD dsRBD2 (from UniProt P19525)", "values": [
      {"measurement": "Kd", "setting": "[3]", "value": 250, "unit": "µM"}
    ]},
    {"molecule": "B1", "values": [
      {"measurement": "Kd", "setting": "PKR", "value": 1260, "unit": "µM"}
    ]},
    {"molecule": "B2", "values": [
      {"measurement": "Kd", "setting": "PKR", "value": 94, "unit": "µM"}
    ]}
  ]
}
